In US20140087995A1 (published 2014):
Numbered stars: 1 amine (or outer) side, 2 acyl side, 3 side chain; on linkers, the order of the positions; unused ones are H or OH. Bridge positions count the residues as written; N and C are the ends. Side chains are listed from the residue outwards. Ends that are not written are not given here. * marks the point of attachment. C20 diacid = O=C(O)CCCCCCCCCCCCCCCCCCC(=O)*; γGlu = O=C(O)[C@H](CCC(=O)[*:2])N[*:1]

T1: human calcitonin receptor (human, UniProt P30988 25-474)
T1 sequence (looked up): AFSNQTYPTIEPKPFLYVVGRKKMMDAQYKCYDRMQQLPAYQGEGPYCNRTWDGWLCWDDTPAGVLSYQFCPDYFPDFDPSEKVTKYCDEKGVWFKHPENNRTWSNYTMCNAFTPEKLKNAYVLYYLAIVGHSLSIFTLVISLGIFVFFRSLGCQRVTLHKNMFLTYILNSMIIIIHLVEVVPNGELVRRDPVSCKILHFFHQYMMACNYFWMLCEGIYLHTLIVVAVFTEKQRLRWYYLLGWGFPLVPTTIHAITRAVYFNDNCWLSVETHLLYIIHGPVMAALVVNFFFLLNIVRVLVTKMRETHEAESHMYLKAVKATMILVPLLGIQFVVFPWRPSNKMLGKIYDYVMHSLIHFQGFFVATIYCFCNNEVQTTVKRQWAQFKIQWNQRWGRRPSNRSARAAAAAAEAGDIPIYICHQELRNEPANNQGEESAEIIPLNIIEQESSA

T2: human amylin receptor (amylin 3(a) receptor: human calcitonin receptor with RAMP-3) (human, UniProt P30988 25-474; O60896 24-148, limits assumed)
T2 construct: whole, on cells; Whole cells in the luciferase assay (Assay II a); also called hAmylin-R; hAmylinR
T2 sequence (looked up) 1: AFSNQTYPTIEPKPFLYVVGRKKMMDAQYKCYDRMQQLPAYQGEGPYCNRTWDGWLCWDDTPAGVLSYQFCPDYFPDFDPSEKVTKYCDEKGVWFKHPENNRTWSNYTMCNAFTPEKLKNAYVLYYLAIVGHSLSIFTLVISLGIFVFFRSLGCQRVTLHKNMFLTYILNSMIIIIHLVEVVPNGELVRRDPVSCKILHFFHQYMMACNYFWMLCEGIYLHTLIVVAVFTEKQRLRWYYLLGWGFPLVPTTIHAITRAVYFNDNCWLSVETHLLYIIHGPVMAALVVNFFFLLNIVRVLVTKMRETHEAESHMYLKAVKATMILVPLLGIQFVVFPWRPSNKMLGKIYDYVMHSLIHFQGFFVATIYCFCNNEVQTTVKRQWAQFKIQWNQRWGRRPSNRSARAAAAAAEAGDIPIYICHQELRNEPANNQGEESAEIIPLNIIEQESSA
T2 sequence (looked up) 2: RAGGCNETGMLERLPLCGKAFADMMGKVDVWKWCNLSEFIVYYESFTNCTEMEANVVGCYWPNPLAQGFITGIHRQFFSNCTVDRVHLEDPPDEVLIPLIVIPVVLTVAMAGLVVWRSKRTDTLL


Legend:
[1] = target: T1, human calcitonin receptor; test: cell-based or functional assay
[2] = target: T2, human amylin receptor (amylin 3(a) …); test: SPA competition binding on membranes of BHK cells with human calcitonin receptor + RAMP-3; displacement of 125I-rat amylin (Assay V)
Outline: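 SPA beads with BHK Amylin 3(a)/CRE-luc cell membranes (35 ng/μL final) in 50 mM Hepes pH 7.4, 1 mM CaCl2, 5 mM MgCl₂, 0.1% OA, 0.02% Tween20.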

Row | Binder | Ratio hCT/hAmylin funct. [1] [ratio] | IC50 [2] [nM] | hCTR funct. EC50 (pM) [1] [pM]
1 | K([γGlu-C20 diacid])CNTATCATQRLAAFLRHSSPNFGAIPSSTNVGPNTY-NH2 (disulfide 2-7; N-terminus assumed; SMILES CC[C@H](C)[C@H](NC(=O)[C@H](C)NC(=O)CNC(=O)[C@H](Cc1ccccc1)NC(=O)[C@H](CC(N)=O)NC(=O)[C@@H]1CCCN1C(=O)[C@H](CO)NC(=O)[C@H](CO)NC(=O)[C@H](Cc1c[nH]cn1)NC(=O)[C@H](CCCNC(=N)N)NC(=O)[C@H](CC(C)C)NC(=O)[C@H](Cc1ccccc1)NC(=O)[C@H](C)NC(=O)[C@H](C)NC(=O)[C@H](CC(C)C)NC(=O)[C@H](CCCNC(=N)N)NC(=O)[C@H](CCC(N)=O)NC(=O)[C@@H](NC(=O)[C@H](C)NC(=O)[C@@H]1CSSC[C@H](NC(=O)[C@@H](N)CCCCNC(=O)CC[C@H](NC(=O)CCCCCCCCCCCCCCCCCCC(=O)O)C(=O)O)C(=O)N[C@@H](CC(N)=O)C(=O)N[C@@H]([C@@H](C)O)C(=O)N[C@@H](C)C(=O)N[C@@H]([C@@H](C)O)C(=O)N1)[C@@H](C)O)C(=O)N1CCC[C@H]1C(=O)N[C@@H](CO)C(=O)N[C@@H](CO)C(=O)N[C@H](C(=O)N[C@@H](CC(N)=O)C(=O)N[C@H](C(=O)NCC(=O)N1CCC[C@H]1C(=O)N[C@@H](CC(N)=O)C(=O)N[C@H](C(=O)N[C@@H](Cc1ccc(O)cc1)C(N)=O)[C@@H](C)O)C(C)C)[C@@H](C)O, also called compound 94) | 4.5 | 0.148 | –
2 | K([γGlu-C20 diacid])CNTATCATQRLAEFLRHSSPNFGAIPSSTNVGPNTP-NH2 (disulfide 2-7; N-terminus assumed; SMILES CC[C@H](C)[C@H](NC(=O)[C@H](C)NC(=O)CNC(=O)[C@H](Cc1ccccc1)NC(=O)[C@H](CC(N)=O)NC(=O)[C@@H]1CCCN1C(=O)[C@H](CO)NC(=O)[C@H](CO)NC(=O)[C@H](Cc1c[nH]cn1)NC(=O)[C@H](CCCNC(=N)N)NC(=O)[C@H](CC(C)C)NC(=O)[C@H](Cc1ccccc1)NC(=O)[C@H](CCC(=O)O)NC(=O)[C@H](C)NC(=O)[C@H](CC(C)C)NC(=O)[C@H](CCCNC(=N)N)NC(=O)[C@H](CCC(N)=O)NC(=O)[C@@H](NC(=O)[C@H](C)NC(=O)[C@@H]1CSSC[C@H](NC(=O)[C@@H](N)CCCCNC(=O)CC[C@H](NC(=O)CCCCCCCCCCCCCCCCCCC(=O)O)C(=O)O)C(=O)N[C@@H](CC(N)=O)C(=O)N[C@@H]([C@@H](C)O)C(=O)N[C@@H](C)C(=O)N[C@@H]([C@@H](C)O)C(=O)N1)[C@@H](C)O)C(=O)N1CCC[C@H]1C(=O)N[C@@H](CO)C(=O)N[C@@H](CO)C(=O)N[C@H](C(=O)N[C@@H](CC(N)=O)C(=O)N[C@H](C(=O)NCC(=O)N1CCC[C@H]1C(=O)N[C@@H](CC(N)=O)C(=O)N[C@H](C(=O)N1CCC[C@H]1C(N)=O)[C@@H](C)O)C(C)C)[C@@H](C)O) | 0.9 | 0.214 | –
3 | K([γGlu-C20 diacid])CNTATCATQRLADFLRHSSPNFGAIPSSTNVGPETY-NH2 (disulfide 2-7; N-terminus assumed; SMILES CC[C@H](C)[C@H](NC(=O)[C@H](C)NC(=O)CNC(=O)[C@H](Cc1ccccc1)NC(=O)[C@H](CC(N)=O)NC(=O)[C@@H]1CCCN1C(=O)[C@H](CO)NC(=O)[C@H](CO)NC(=O)[C@H](Cc1c[nH]cn1)NC(=O)[C@H](CCCNC(=N)N)NC(=O)[C@H](CC(C)C)NC(=O)[C@H](Cc1ccccc1)NC(=O)[C@H](CC(=O)O)NC(=O)[C@H](C)NC(=O)[C@H](CC(C)C)NC(=O)[C@H](CCCNC(=N)N)NC(=O)[C@H](CCC(N)=O)NC(=O)[C@@H](NC(=O)[C@H](C)NC(=O)[C@@H]1CSSC[C@H](NC(=O)[C@@H](N)CCCCNC(=O)CC[C@H](NC(=O)CCCCCCCCCCCCCCCCCCC(=O)O)C(=O)O)C(=O)N[C@@H](CC(N)=O)C(=O)N[C@@H]([C@@H](C)O)C(=O)N[C@@H](C)C(=O)N[C@@H]([C@@H](C)O)C(=O)N1)[C@@H](C)O)C(=O)N1CCC[C@H]1C(=O)N[C@@H](CO)C(=O)N[C@@H](CO)C(=O)N[C@H](C(=O)N[C@@H](CC(N)=O)C(=O)N[C@H](C(=O)NCC(=O)N1CCC[C@H]1C(=O)N[C@@H](CCC(=O)O)C(=O)N[C@H](C(=O)N[C@@H](Cc1ccc(O)cc1)C(N)=O)[C@@H](C)O)C(C)C)[C@@H](C)O) | 3.9 | 0.196 | 1120
4 | K([γGlu-C20 diacid])CNTATCATQRLAHFLRHSSPNFGAIPSSTPVGPNTY-NH2 (disulfide 2-7; N-terminus assumed; SMILES CC[C@H](C)[C@H](NC(=O)[C@H](C)NC(=O)CNC(=O)[C@H](Cc1ccccc1)NC(=O)[C@H](CC(N)=O)NC(=O)[C@@H]1CCCN1C(=O)[C@H](CO)NC(=O)[C@H](CO)NC(=O)[C@H](Cc1c[nH]cn1)NC(=O)[C@H](CCCNC(=N)N)NC(=O)[C@H](CC(C)C)NC(=O)[C@H](Cc1ccccc1)NC(=O)[C@H](Cc1c[nH]cn1)NC(=O)[C@H](C)NC(=O)[C@H](CC(C)C)NC(=O)[C@H](CCCNC(=N)N)NC(=O)[C@H](CCC(N)=O)NC(=O)[C@@H](NC(=O)[C@H](C)NC(=O)[C@@H]1CSSC[C@H](NC(=O)[C@@H](N)CCCCNC(=O)CC[C@H](NC(=O)CCCCCCCCCCCCCCCCCCC(=O)O)C(=O)O)C(=O)N[C@@H](CC(N)=O)C(=O)N[C@@H]([C@@H](C)O)C(=O)N[C@@H](C)C(=O)N[C@@H]([C@@H](C)O)C(=O)N1)[C@@H](C)O)C(=O)N1CCC[C@H]1C(=O)N[C@@H](CO)C(=O)N[C@@H](CO)C(=O)N[C@H](C(=O)N1CCC[C@H]1C(=O)N[C@H](C(=O)NCC(=O)N1CCC[C@H]1C(=O)N[C@@H](CC(N)=O)C(=O)N[C@H](C(=O)N[C@@H](Cc1ccc(O)cc1)C(N)=O)[C@@H](C)O)C(C)C)[C@@H](C)O) | 4.9 | 0.082 | –

Continued, values first:

Row | Ratio hCT/hAmylin funct. [1] [ratio] | IC50 [2] [nM] | hCTR funct. EC50 (pM) [1] [pM] | Binder
5 | 0.8 | 0.131 | – | K([γGlu-C20 diacid])CNTATCATQRLAHFLRHSSPNFGAIPSSTNVGPNTP-NH2 (disulfide 2-7; N-terminus assumed; SMILES CC[C@H](C)[C@H](NC(=O)[C@H](C)NC(=O)CNC(=O)[C@H](Cc1ccccc1)NC(=O)[C@H](CC(N)=O)NC(=O)[C@@H]1CCCN1C(=O)[C@H](CO)NC(=O)[C@H](CO)NC(=O)[C@H](Cc1c[nH]cn1)NC(=O)[C@H](CCCNC(=N)N)NC(=O)[C@H](CC(C)C)NC(=O)[C@H](Cc1ccccc1)NC(=O)[C@H](Cc1c[nH]cn1)NC(=O)[C@H](C)NC(=O)[C@H](CC(C)C)NC(=O)[C@H](CCCNC(=N)N)NC(=O)[C@H](CCC(N)=O)NC(=O)[C@@H](NC(=O)[C@H](C)NC(=O)[C@@H]1CSSC[C@H](NC(=O)[C@@H](N)CCCCNC(=O)CC[C@H](NC(=O)CCCCCCCCCCCCCCCCCCC(=O)O)C(=O)O)C(=O)N[C@@H](CC(N)=O)C(=O)N[C@@H]([C@@H](C)O)C(=O)N[C@@H](C)C(=O)N[C@@H]([C@@H](C)O)C(=O)N1)[C@@H](C)O)C(=O)N1CCC[C@H]1C(=O)N[C@@H](CO)C(=O)N[C@@H](CO)C(=O)N[C@H](C(=O)N[C@@H](CC(N)=O)C(=O)N[C@H](C(=O)NCC(=O)N1CCC[C@H]1C(=O)N[C@@H](CC(N)=O)C(=O)N[C@H](C(=O)N1CCC[C@H]1C(N)=O)[C@@H](C)O)C(C)C)[C@@H](C)O)
6 | 0.8 | 0.533 | 102 | K([γGlu-γGlu-C20 diacid])CNTATCATQRLAEFLRHSSPNFGAIPSSTNVGPETP-NH2 (disulfide 2-7; N-terminus assumed; SMILES CC[C@H](C)[C@H](NC(=O)[C@H](C)NC(=O)CNC(=O)[C@H](Cc1ccccc1)NC(=O)[C@H](CC(N)=O)NC(=O)[C@@H]1CCCN1C(=O)[C@H](CO)NC(=O)[C@H](CO)NC(=O)[C@H](Cc1c[nH]cn1)NC(=O)[C@H](CCCNC(=N)N)NC(=O)[C@H](CC(C)C)NC(=O)[C@H](Cc1ccccc1)NC(=O)[C@H](CCC(=O)O)NC(=O)[C@H](C)NC(=O)[C@H](CC(C)C)NC(=O)[C@H](CCCNC(=N)N)NC(=O)[C@H](CCC(N)=O)NC(=O)[C@@H](NC(=O)[C@H](C)NC(=O)[C@@H]1CSSC[C@H](NC(=O)[C@@H](N)CCCCNC(=O)CC[C@H](NC(=O)CC[C@H](NC(=O)CCCCCCCCCCCCCCCCCCC(=O)O)C(=O)O)C(=O)O)C(=O)N[C@@H](CC(N)=O)C(=O)N[C@@H]([C@@H](C)O)C(=O)N[C@@H](C)C(=O)N[C@@H]([C@@H](C)O)C(=O)N1)[C@@H](C)O)C(=O)N1CCC[C@H]1C(=O)N[C@@H](CO)C(=O)N[C@@H](CO)C(=O)N[C@H](C(=O)N[C@@H](CC(N)=O)C(=O)N[C@H](C(=O)NCC(=O)N1CCC[C@H]1C(=O)N[C@@H](CCC(=O)O)C(=O)N[C@H](C(=O)N1CCC[C@H]1C(N)=O)[C@@H](C)O)C(C)C)[C@@H](C)O)
